From patent US20240110201A1 (SPARK THERAPEUTICS, published 2024)

Biological target: T1, C1-esterase (reagent of the Technochrom C1-INH kit, Diapharma 5345003) (human, UniProt P09871 16-688, limits assumed)
T1 sequence (looked up): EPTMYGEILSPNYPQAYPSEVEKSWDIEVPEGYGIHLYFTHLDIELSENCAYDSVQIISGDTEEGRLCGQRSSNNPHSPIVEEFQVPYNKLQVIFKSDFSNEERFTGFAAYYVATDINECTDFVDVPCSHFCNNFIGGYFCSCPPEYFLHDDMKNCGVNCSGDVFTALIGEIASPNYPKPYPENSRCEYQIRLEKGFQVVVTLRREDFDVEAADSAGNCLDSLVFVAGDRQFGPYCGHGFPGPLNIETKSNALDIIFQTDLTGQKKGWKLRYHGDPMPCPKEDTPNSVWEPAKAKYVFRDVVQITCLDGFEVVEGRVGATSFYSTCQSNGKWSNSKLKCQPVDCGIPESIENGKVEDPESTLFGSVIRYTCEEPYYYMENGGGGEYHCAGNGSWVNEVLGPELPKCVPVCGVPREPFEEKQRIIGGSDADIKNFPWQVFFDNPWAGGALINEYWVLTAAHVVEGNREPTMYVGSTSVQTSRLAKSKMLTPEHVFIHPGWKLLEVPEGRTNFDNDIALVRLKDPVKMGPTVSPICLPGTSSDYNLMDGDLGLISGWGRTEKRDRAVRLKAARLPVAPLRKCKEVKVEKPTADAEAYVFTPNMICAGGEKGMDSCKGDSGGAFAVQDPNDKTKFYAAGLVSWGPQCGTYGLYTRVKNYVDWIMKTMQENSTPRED
Experiment: cell-based or functional assay

B1: human C1 inhibitor (transgene product secreted into plasma after administration of AAV-encapsidated SERPING1 expression cassettes) (other)
chain: NPNATSSSSQDPESLQDRGEGKVATTVISKMLFVEPILEVSSLPTTNSTTNSATKITANTTDEPTTQPTTEPTTQPTIQPTQPTTQLPTDSPTQPTTGSFCPGPVTLCSDLESHSTEAVLGDALVDFSLKLYHAFSAMKKVETNMAFSPFSIASLLTQVLLGAGENTKTNLESILSYPKDFTCVHQALKGFTTKGVTSVSQIFHSPDLAIRDTFVNASRTLYSSSPRVLSNNSDANLELINTWVAKNTNNKISRLLDSLPSDTRLVLLNAIYLSAKWKTTFDPKKTRMEPFHFKNSVIKVPMMNSKKYPVAHFIDQTLKAKVGQLQLSHNLSLVILVPQNLKHRLEDMEQALSPSVFKAIMEKLEMSKFQPTLLTLPRIKVTTSQDMLSIMEKLEFFDFSYDLNLCGLTEDPDLQVSAMQHQTVLELTETGVEAAAASAISVARTLLVFEVQQPFLFVLWDQQHKFPVFMGRVYDPRA
  C1-INH activity, chromogenic assay of residual C1-esterase activity, reported as percentage of activity relative to a coagulation reference standard: 766 % activity
